Data from the supplement of paper PMC11246515.
± gives the standard deviation of the averaged measurements.

Assay: total protein half-life in vivo (active degradation + dilution); higher = more stable protein
[1] = E. coli NCM3722 delta-clpP delta-lon delta-hslV, growth: N-lim chemostat, doubling time 6 h
[2] = E. coli NCM3722 delta-clpP, growth: N-lim chemostat, doubling time 6 h
[3] = E. coli NCM3722 delta-hslV, growth: N-lim chemostat, doubling time 6 h
[4] = E. coli NCM3722 delta-lon, growth: N-lim chemostat, doubling time 6 h
[5] = E. coli NCM3722 delta-smpB, growth: N-lim chemostat, doubling time 6 h
[6] = wild type E. coli NCM3722, growth: C-lim chemostat, doubling time 3 h
[7] = wild type E. coli NCM3722, growth: C-lim chemostat, doubling time 6 h
[8] = wild type E. coli NCM3722, growth: C-lim chemostat, doubling time 12 h
[9] = wild type E. coli NCM3722, growth: N-lim chemostat, doubling time 6 h
[10] = wild type E. coli NCM3722, growth: N-lim chemostat, doubling time 12 h
[11] = wild type E. coli NCM3722, growth: P-lim chemostat, doubling time 6 h
[12] = wild type E. coli NCM3722, growth: P-lim chemostat, doubling time 12 h

| Sequence | total protein half-life in vivo [1] | total protein half-life in vivo [2] | total protein half-life in vivo [3] | total protein half-life in vivo [4] | total protein half-life in vivo [5] | total protein half-life in vivo [6] | total protein half-life in vivo [7] | total protein half-life in vivo [8] | total protein half-life in vivo [9] | total protein half-life in vivo [10] | total protein half-life in vivo [11] | total protein half-life in vivo [12] |
| --- | --- | --- | --- | --- | --- | --- | --- | --- | --- | --- | --- | --- |
| MTQQPQAKYRHDYRAPDYQITDIDLTFDLDAQKTVVTAVSQAVRHGASDAPLRLNGEDLKLVSVHINDEPWTAWKEEEGALVISNLPERFTLKIINEISPAANTALEGLYQSGDALCTQCEAEGFRHITYYLDRPDVLARFTTKIIADKIKYPFLLSNGNRVAQGELENGRHWVQWQDPFPKPCYLFALVAGDFDVLRDTFTTRSGREVALELYVDRGNLDRAPWAMTSLKNSMKWDEERFGLEYDLDIYMIVAVDFFNMGAMENKGLNIFNSKYVLARTDTATDKDYLDIERVIGHEYFHNWTGNRVTCRDWFQLSLKEGLTVFRDQEFSSDLGSRAVNRINNVRTMRGLQFAEDASPMAHPIRPDMVIEMNNFYTLTVYEKGAEVIRMIHTLLGEENFQKGMQLYFERHDGSAATCDDFVQAMEDASNVDLSHFRRWYSQSGTPIVTVKDDYNPETEQYTLTISQRTPATPDQAEKQPLHIPFAIELYDNEGKVIPLQKGGHPVNSVLNVTQAEQTFVFDNVYFQPVPALLCEFSAPVKLEYKWSDQQLTFLMRHARNDFSRWDAAQSLLATYIKLNVARHQQGQPLSLPVHVADAFRAVLLDEKIDPALAAEILTLPSVNEMAELFDIIDPIAIAEVREALTRTLATELADELLAIYNANYQSEYRVEHEDIAKRTLRNACLRFLAFGETHLADVLVSKQFHEANNMTDALAALSAAVAAQLPCRDALMQEYDDKWHQNGLVMDKWFILQATSPAANVLETVRGLLQHRSFTMSNPNRIRSLIGAFAGSNPAAFHAEDGSGYLFLVEMLTDLNSRNPQVASRLIEPLIRLKRYDAKRQEKMRAALEQLKGLENLSGDLYEKITKALA | 5.11 ± 0.53 h | 4.45 ± 0.1 h | 4.27 ± 0.086 h | 4.48 ± 0.29 h | 4.38 ± 0.084 h | 3.05 ± 0.19 h | 5.55 ± 0.11 h | 10.5 ± 0.56 h | 4.36 ± 0.11 h | 6.63 ± 0.16 h | 5.89 ± 0.069 h | 11.3 ± 0.68 h |
| MTQTLLAIENLSVGFRHQQTVRTVVNDVSLQIEAGETLALVGESGSGKSVTALSILRLLPSPPVEYLSGDIRFHGESLLHASDQTLRGVRGNKIAMIFQEPMVSLNPLHTLEKQLYEVLSLHRGMRREAARGEILNCLDRVGIRQAAKRLTDYPHQLSGGERQRVMIAMALLTRPELLIADEPTTALDVSVQAQILQLLRELQGELNMGMLFITHNLSIVRKLAHRVAVMQNGRCVEQNYAATLFASPTHPYTQKLLNSEPSGDPVPLPEPASTLLDVEQLQVAFPIRKGILKRIVDHNVVVKNISFTLRAGETLGLVGESGSGKSTTGLALLRLINSQGSIIFDGQPLQNLNRRQLLPIRHRIQVVFQDPNSSLNPRLNVLQIIEEGLRVHQPTLSAAQREQQVIAVMHEVGLDPETRHRYPAEFSGGQRQRIAIARALILKPSLIILDEPTSSLDKTVQAQILTLLKSLQQKHQLAYLFISHDLHVVRALCHQVIILRQGEVVEQGPCARVFATPQQEYTRQLLALS |  | 5.76 ± 0.31 h | 6.42 ± 0.031 h | 4.55 ± 0.74 h | 5.67 ± 0.15 h | 3 ± 0.32 h | 5.64 ± 0.14 h | 13.1 ± 0.73 h | 5.87 ± 0.26 h | 11.6 h | 6.17 ± 0.13 h | 11.9 ± 0.82 h |
| MTQTLSQLENSGAFIERHIGPDAAQQQEMLNAVGAQSLNALTGQIVPKDIQLATPPQVGAPATEYAALAELKAIASRNKRFTSYIGMGYTAVQLPPVILRNMLENPGWYTAYTPYQPEVSQGRLEALLNFQQVTLDLTGLDMASASLLDEATAAAEAMAMAKRVSKLKNANRFFVASDVHPQTLDVVRTRAETFGFEVIVDDAQKVLDHQDVFGVLLQQVGTTGEIHDYTALISELKSRKIVVSVAADIMALVLLTAPGKQGADIVFGSAQRFGVPMGYGGPHAAFFAAKDEYKRSMPGRIIGVSKDAAGNTALRMAMQTREQHIRREKANSNICTSQVLLANIASLYAVYHGPVGLKRIANRIHRLTDILAAGLQQKGLKLRHAHYFDTLCVEVADKAGVLTRAEAAEINLRSDILNAVGITLDETTTRENVMQLFNVLLGDNHGLDIDTLDKDVAHDSRSIQPAMLRDDEILTHPVFNRYHSETEMMRYMHSLERKDLALNQAMIPLGSCTMKLNAAAEMIPITWPEFAELHPFCPPEQAEGYQQMIAQLADWLVKLTGYDAVCMQPNSGAQGEYAGLLAIRHYHESRNEGHRDICLIPASAHGTNPASAHMAGMQVVVVACDKNGNIDLTDLRAKAEQAGDNLSCIMVTYPSTHGVYEETIREVCEVVHQFGGQVYLDGANMNAQVGITSPGFIGADVSHLNLHKTFCIPHGGGGPGMGPIGVKAHLAPFVPGHSVVQIEGMLTRQGAVSAAPFGSASILPISWMYIRMMGAEGLKKASQVAILNANYIASRLQDAFPVLYTGRDGRVAHECILDIRPLKEETGISELDIAKRLIDYGFHAPTMSFPVAGTLMVEPTESESKVELDRFIDAMLAIRAEIDQVKAGVWPLEDNPLVNAPHIQSELVAEWAHPYSREVAVFPAGVADKYWPTVKRLDDVYGDRNLFCSCVPISEYQ | 4.44 ± 0.46 h | 3.621 ± 0.013 h | 4.09 ± 0.11 h | 4 ± 0.3 h | 3.81 ± 0.18 h | 3.022 ± 0.029 h | 4.95 ± 0.14 h | 8.75 ± 0.28 h | 4.02 ± 0.13 h | 6.79 ± 0.18 h | 6.117 ± 0.035 h | 11 ± 0.55 h |
| MTQYWLGLDCGGSWLKAGLYDREGREAGVQRLPLCALSPQPGWAERDMAELWQCCMAVIRALLTHSGVSGEQIVGIGISAQGKGLFLLDKNDKPLGNAILSSDRRAMEIVRRWQEDGIPEKLYPLTRQTLWTGHPVSLLRWLKEHEPERYAQIGCVMMTHDYLRWCLTGVKGCEESNISESNLYNMSLGEYDPCLTDWLGIAEINHALPPVVGSAEICGEITAQTAALTGLKAGTPVVGGLFDVVSTALCAGIEDEFTLNAVMGTWAVTSGITRGLRDGEAHPYVYGRYVNDGEFIVHEASPTSSGNLEWFTAQWGEISFDEINQAVASLPKAGGDLFFLPFLYGSNAGLEMTSGFYGMQAIHTRAHLLQAIYEGVVFSHMTHLNRMRERFTDVHTLRVTGGPAHSDVWMQMLADVSGLRIELPQVEETGCFGAALAARVGTGVYHNFSEAQRDLRHPVRTLLPDMTAHQLYQKKYQRYQHLIAALQGFHARIKEHTL |  |  |  |  |  |  | 4.05 ± 1.2 h | 7.19 ± 1.2 h |  |  |  |  |
| MTRIKINARRIFSLLIPFFFFTSVHAEQTAAPAKPVTVEAKNETFAPQHPDQYLSWKATSEQSERVDALAEDPRLVILWAGYPFSRDYNKPRGHAFAVTDVRETLRTGAPKNAEDGPLPMACWSCKSPDVARLIQKDGEDGYFHGKWARGGPEIVNNLGCADCHNTASPEFAKGKPELTLSRPYAARAMEAIGKPFEKAGRFDQQSMVCGQCHVEYYFDGKNKAVKFPWDDGMKVENMEQYYDKIAFSDWTNSLSKTPMLKAQHPEYETWTAGIHGKNNVTCIDCHMPKVQNAEGKLYTDHKIGNPFDNFAQTCANCHTQDKAALQKVVAERKQSINDLKIKVEDQLVHAHFEAKAALDAGATEAEMKPIQDDIRHAQWRWDLAIASHGIHMHAPEEGLRMLGTAMDKAADARTKLARLLATKGITHEIQIPDISTKEKAQQAIGLNMEQIKAEKQDFIKTVIPQWEEQARKNGLLSQ [P0ABK9] | 3.84 h | 5.87 h |  |  |  |  |  | > 16 h |  | 10.5 ± 0.82 h |  |  |
| MTRKQATIAVRSGLNDDEQYGCVVPPIHLSSTYNFTGFNEPRAHDYSRRGNPTRDVVQRALAELEGGAGAVLTNTGMSAIHLVTTVFLKPGDLLVAPHDCYGGSYRLFDSLAKRGCYRVLFVDQGDEQALRAALAEKPKLVLVESPSNPLLRVVDIAKICHLAREVGAVSVVDNTFLSPALQNPLALGADLVLHSCTKYLNGHSDVVAGVVIAKDPDVVTELAWWANNIGVTGGAFDSYLLLRGLRTLVPRMELAQRNAQAIVKYLQTQPLVKKLYHPSLPENQGHEIAARQQKGFGAMLSFELDGDEQTLRRFLGGLSLFTLAESLGGVESLISHAATMTHAGMAPEARAAAGISETLLRISTGIEDGEDLIADLENGFRAANKG | 4.37 ± 0.79 h | 4.07 ± 0.43 h | 3.31 ± 0.36 h | 4.53 ± 0.59 h | 3.95 ± 0.28 h | 3.1 ± 0.16 h | 4.98 ± 0.61 h | 10 ± 0.44 h | 3.56 ± 0.17 h | 5.84 ± 0.7 h | 5.83 ± 0.5 h | 11.7 ± 1.1 h |
| MTRLAEILDQMSAVLNDLKTVMDQEQQHLSMGQINGSQLQWITEQKSSLLATLDYLEQLRRKEPNTANSVDISQRWQEITVKTQQLRQMNQHNGWLLEGQIERNQQALEMLKPHQEPTLYGANGQTSTTHRGGKKISI |  |  |  |  |  | 1.15 ± 0.27 h | 4.91 h | 3.28 h |  |  |  |  |
| MTRLTLALDVMGGDFGPSVTVPAALQALNSNSQLTLLLVGNSDAITPLLAKADFEQRSRLQIIPAQSVIASDARPSQAIRASRGSSMRVALELVKEGRAQACVSAGNTGALMGLAKLLLKPLEGIERPALVTVLPHQQKGKTVVLDLGANVDCDSTMLVQFAIMGSVLAEEVVEIPNPRVALLNIGEEEVKGLDSIRDASAVLKTIPSINYIGYLEANELLTGKTDVLVCDGFTGNVTLKTMEGVVRMFLSLLKSQGEGKKRSWWLLLLKRWLQKSLTRRFSHLNPDQYNGACLLGLRGTVIKSHGAANQRAFAVAIEQAVQAVQRQVPQRIAARLESVYPAGFELLDGGKSGTLR |  | 6.24 ± 1.2 h | 5.82 ± 0.97 h |  | 5.36 ± 0.15 h | 2.67 ± 0.076 h | 5.52 ± 0.33 h | 10.8 ± 1.9 h | 5.32 ± 0.21 h | 9.51 ± 0.53 h | 5.34 ± 0.72 h | 8.85 ± 1.9 h |
